The values that follow come from PMC7870875 (Scientific Reports, 2021).

The target of assay [1] is T1, full-length Spike protein of SARS-CoV-2 (SARS-CoV-2 (Wuhan-Hu-1 reference; …, UniProt P0DTC2).
T1 construct: source: bought: SINOBiological; produced in a baculovirus expression system
Description: far-Western, overlay or dot blot. As to conditions: one partner purified.

The target of a further assay is T2, Spike-GFP (SARS-CoV-2 (Wuhan-Hu-1 reference; …, UniProt P0DTC2).
T2 construct: also called S-GFP
Description: immunostaining of cells or tissue. Conditions: partners not purified.

B1: intimin-Nanobody fusion of clone W23 (bacterial display) (VHH)
VHH: QVQLVESGGGLVQPGESLRLSCAASGNIFGIAAVHWFRKAPGKEREFTAGFGSDGSTNYANSVKGRFTISRDNAKNTTYLQMNSLKPEDTAVYYCHALIKNELGFLDYWGPGTQVTVSS
notes: also called clone W23 total protein extract
As for B1, the binding result (in assay [1]; with Spike-GFP) was “binds” throughout.
